Patent publication US20170037133A1

What was measured:
CD155 (PVR) = CD155 (PVR) (UniProt P15151); assay: cell-based or functional assay
CD112 (Nectin-2, PVRL2) = CD112 (Nectin-2, PVRL2) (UniProt Q92692); assay: cell-based or functional assay
Chain of UniProt Q92692 (Q92692 32-538 limits assumed): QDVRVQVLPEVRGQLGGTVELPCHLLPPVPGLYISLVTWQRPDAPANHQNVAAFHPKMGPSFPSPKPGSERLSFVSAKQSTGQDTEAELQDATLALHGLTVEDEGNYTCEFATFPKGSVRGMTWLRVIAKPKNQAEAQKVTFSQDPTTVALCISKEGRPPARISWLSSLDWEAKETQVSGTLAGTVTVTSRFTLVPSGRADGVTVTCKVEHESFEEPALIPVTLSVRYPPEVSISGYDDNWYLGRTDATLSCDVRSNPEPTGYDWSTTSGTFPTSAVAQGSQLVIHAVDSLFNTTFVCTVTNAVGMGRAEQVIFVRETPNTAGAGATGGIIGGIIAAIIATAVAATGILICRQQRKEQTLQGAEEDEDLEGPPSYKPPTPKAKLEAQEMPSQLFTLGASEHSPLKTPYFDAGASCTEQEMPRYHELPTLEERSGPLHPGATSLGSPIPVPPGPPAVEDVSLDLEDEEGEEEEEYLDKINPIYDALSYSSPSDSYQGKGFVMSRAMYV

Row | MV4-11 cell lysis in the presence of 0.1 ng/ml AMG 330 (CD155 (PVR)) | MV4-11 cell lysis in the presence of 0.1 ng/ml AMG 330 (CD112 (Nectin-2, PVRL2)) | Substance | cell kill of MV4-11 (7-AAD positive target cells, 24 h co-culture with PBMCs, no AMG 330) (CD155 (PVR)) | cell kill of MV4-11 (7-AAD positive target cells, 24 h co-culture with PBMCs, no AMG 330) (CD112 (Nectin-2, PVRL2))
1 | 49.7% | – | mouse anti-PVR clone D171 (antibody) | 33% | –
2 | – | 57.9% | mouse anti-PVRL2 clone L14 (antibody) | – | 40.4%
